Source: patent US20210332382A1

Key:
[1] = target: Adenovirus delta 24, serotype 5 virus with a modified knob from serotype 3 adenovirus (AdV 5/3), whole virus particles; assay: MP-SPR, peptide over AdV on APTES sensor, A195 buffer, Min (after flush, no peptide in solution)
[2] = target: Adenovirus delta 24, serotype 5 virus with a modified knob from serotype 3 adenovirus (AdV 5/3), whole virus particles; assay: MP-SPR, peptide over AdV on APTES sensor, water, Min (after flush, no peptide in solution)
[3] = target: Adenovirus delta 24, serotype 5 virus with a modified knob from serotype 3 adenovirus (AdV 5/3), whole virus particles; assay: MP-SPR, peptide over AdV on APTES sensor, A195 buffer, Max (100 µM peptide in solution)
[4] = target: Adenovirus delta 24, serotype 5 virus with a modified knob from serotype 3 adenovirus (AdV 5/3), whole virus particles; assay: MP-SPR, peptide over AdV on APTES sensor, water, Max (100 µM peptide in solution)

Row | Binder | Adsorbed Peptides SPR response [1] | Mass Peptide [1] | Mass/Area Peptide [1] | Moles peptide [1] | Adsorbed Peptides SPR response [2] | Mass Peptide [2] | Mass/Area Peptide [2] | Moles peptide [2] | Adsorbed Peptides SPR response [3] | Mass Peptide [3] | Mass/Area Peptide [3] | Moles peptide [3] | Adsorbed Peptides SPR response [4] | Mass Peptide [4] | Mass/Area Peptide [4] | Moles peptide [4]
1 | KKKKKKKKKVFGIELMEVDPIGHLYIFAT [PEP1456 = …-… (9K-MAGE-A3 peptide, MAGE-A3 161-180 with a 9-lysine tail at the amino terminus)] | 0.276 Δ° | 1.3 ng | 166 ng/cm^2 | 3.81e-13 mol | 0.029 Δ° | 0.14 ng | 17.4 ng/cm^2 | 4e-14 mol | 0.371 Δ° | 1.75 ng | 223 ng/cm^2 | 5.12e-13 mol | 0.13 Δ° | 0.61 ng | 78.2 ng/cm^2 | 1.8e-13 mol
2 | KKKKKKYLAMPFATPMEAELARRSLA | 0.012 Δ° | 0.06 ng | 7.2 ng/cm^2 | 1.88e-14 mol | 0.0184 Δ° | 0.09 ng | 11 ng/cm^2 | 2.88e-14 mol | 0.044 Δ° | 0.21 ng | 26.4 ng/cm^2 | 6.89e-14 mol | 0.0386 Δ° | 0.18 ng | 23.2 ng/cm^2 | 6.05e-14 mol
3 | KKKKKKVFGIELMEVDPIGHLYIFAT [PEP1455 = KKKKKK-… (6K-MAGE-A3 peptide, MAGE-A3 161-180 with a 6-lysine tail at the amino terminus)] | 0.0174 Δ° | 0.08 ng | 10.4 ng/cm^2 | 2.7e-14 mol | 0.0674 Δ° | 0.32 ng | 40.4 ng/cm^2 | 1.05e-13 mol | 0.078 Δ° | 0.37 ng | 46.8 ng/cm^2 | 1.21e-13 mol | 0.153 Δ° | 0.72 ng | 91.9 ng/cm^2 | 2.38e-13 mol
